PMC6204840

How the values were obtained:
[1] = molecular target: soluble human neonatal Fc receptor (FcRn alpha chain extracellular domain + beta2-microglobulin) (UniProt P55899+P61769); assay: SPR; conditions: pH 6.0, PBS (concentration not stated), adjusted to pH 6.0 or pH 7.4
[2] = molecular target: recombinant cynomolgus monkey FcRn (cynomolgus monkey) (UniProt Q8SPV9); assay: BLI
[3] = molecular target: motavizumab IgG1 with wild type Fc (human); assay: SPR
[4] = molecular target: motavizumab IgG1 with Fc variant DF197 (human); assay: SPR
[5] = molecular target: motavizumab IgG1 with Fc variant DF215 (human); assay: SPR
[6] = molecular target: motavizumab IgG1 with Fc variant DF213 (human); assay: SPR
[7] = molecular target: motavizumab IgG1 with Fc variant DF183 (human); assay: SPR
[8] = molecular target: Fcγ receptor IIIa (V176 or F176, not told which) (UniProt P08637); assay: ELISA
[9] = molecular target: Fcγ receptor IIIa (V176 or F176, not told which) (UniProt P08637)

UniProt P08637, sequence (P08637 17-208): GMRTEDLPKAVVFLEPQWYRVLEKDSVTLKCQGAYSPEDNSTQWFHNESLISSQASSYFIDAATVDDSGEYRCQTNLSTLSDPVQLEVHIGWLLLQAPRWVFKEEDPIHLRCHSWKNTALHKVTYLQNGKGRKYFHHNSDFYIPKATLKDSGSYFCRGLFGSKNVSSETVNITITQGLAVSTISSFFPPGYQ
UniProt Q8SPV9, sequence (Q8SPV9 24-297, chain 1 of 2): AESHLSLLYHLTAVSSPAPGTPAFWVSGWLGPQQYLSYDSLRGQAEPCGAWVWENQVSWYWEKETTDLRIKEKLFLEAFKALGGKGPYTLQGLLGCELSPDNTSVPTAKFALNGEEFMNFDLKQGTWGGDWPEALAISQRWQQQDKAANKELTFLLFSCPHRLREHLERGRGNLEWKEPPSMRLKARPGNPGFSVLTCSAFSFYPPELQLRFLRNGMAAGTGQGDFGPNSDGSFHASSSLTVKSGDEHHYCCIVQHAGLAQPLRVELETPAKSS
UniProt Q8SPV9, sequence (Q8SPW0 21-119, chain 2 of 2, further chain): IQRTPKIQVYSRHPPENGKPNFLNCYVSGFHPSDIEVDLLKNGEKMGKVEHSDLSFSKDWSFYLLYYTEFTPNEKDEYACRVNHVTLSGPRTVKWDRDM

Substance: motavizumab IgG1 DF183 T256D;Q311V;A378V
- ka [1]: 1.93e+06 M⁻¹ s⁻¹
- kd [1]: 0.0402 s⁻¹

Substance: motavizumab IgG1 DF197 H285N;T307Q;N315D
- ka [1]: 1.59e+06 M⁻¹ s⁻¹
- kd [1]: 0.0328 s⁻¹

Substance: motavizumab IgG1 DF213 H285D;T307Q;A378V
- ka [1]: 800000 M⁻¹ s⁻¹
- kd [1]: 0.0192 s⁻¹

Substance: motavizumab IgG1 DF215 T307Q;Q311V;A378V
- ka [1]: 1.37e+06 M⁻¹ s⁻¹
- kd [1]: 0.027 s⁻¹

Substance: motavizumab IgG1 DF228 T256D;H286D (as printed; probably N286D);T307R;Q311V;A378V
- ka [1]: 1.39e+06 M⁻¹ s⁻¹
- kd [1]: 0.0142 s⁻¹

Substance: motavizumab with wild type human IgG1 Fc (antibody)
- Kd [2]: 13.7 nM

Substance: recombinant human FcRn heterodimer (α-FcRn extracellular domain with β2M) (from UniProt P55899 24-297; P61769 21-119) (complex)
- Kd [3]: 825 nM
- Kd [4]: 21 nM
- Kd [5]: 19 nM
- Kd [6]: 24 nM
- Kd [7]: 21 nM

Substance: rituximab IgG1 with Fc variant DF183 (antibody)
- EC50 [8]: 87.2 nM
- ADCC EC50 (ADCC Reporter Bioassay, rituximab Fab, WIL2-S cells) [9]: 3.92 ng/mL

Substance: rituximab IgG1 with Fc variant DF197 (antibody)
- EC50 [8]: 97.4 nM
- ADCC EC50 (ADCC Reporter Bioassay, rituximab Fab, WIL2-S cells) [9]: 8.3 ng/mL

Substance: rituximab IgG1 with Fc variant DF213 (antibody)
- EC50 [8]: 139 nM
- ADCC EC50 (ADCC Reporter Bioassay, rituximab Fab, WIL2-S cells) [9]: 4.01 ng/mL

Substance: rituximab IgG1 with Fc variant DF215 (antibody)
- EC50 [8]: 142 nM
- ADCC EC50 (ADCC Reporter Bioassay, rituximab Fab, WIL2-S cells) [9]: 2.73 ng/mL

Substance: rituximab IgG1 with Fc variant DF228 (antibody)
- EC50 [8]: 154 nM
- ADCC EC50 (ADCC Reporter Bioassay, rituximab Fab, WIL2-S cells) [9]: 2.66 ng/mL

Substance: rituximab IgG1 with Fc variant LS (antibody)
- EC50 [8]: 192 nM

Substance: rituximab IgG1 with Fc variant YTE (antibody)
- EC50 [8]: 1010 nM
- ADCC EC50 (ADCC Reporter Bioassay, rituximab Fab, WIL2-S cells) [9]: 15 ng/mL

Substance: rituximab IgG1 with wild type Fc (antibody)
- EC50 [8]: 538 nM
